A word on the Kd: it is the equilibrium constant for the complex coming apart. Read a high Kd as weaker binding.

Results on 2 molecules are retold here after paper PMC11237882 (2024).

Common to all, as to test: BLI (SUMO-peptide on tip, monomeric EVH1)
One experiment has as its target T1, PCDH15 (Homo sapiens (Human), UniProt Q96QU1).
T1 chain: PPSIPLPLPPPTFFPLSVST

The target of another experiment is T2, PRRC2B (Homo sapiens (Human), UniProt Q5JSZ5).
T2 chain: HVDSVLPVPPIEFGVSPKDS

The next experiment concerns the target T3, FAT1 (Homo sapiens (Human), UniProt Q14517).
T3 chain: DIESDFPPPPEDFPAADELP

A further experiment concerns the target T4, RARA (Homo sapiens (Human), UniProt P10276).
T4 chain: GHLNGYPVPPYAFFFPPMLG

The next experiment addresses T5, APBB1IP_1 (Homo sapiens (Human), UniProt Q7Z5R6).
T5 chain: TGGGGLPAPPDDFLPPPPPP

The target in another experiment is T6, DSCAM (Homo sapiens (Human), UniProt O60469).
T6 chain: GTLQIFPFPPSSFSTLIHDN

Some results are limits rather than exact numbers.

B1: HOMER1 (protein)
chain: MGEQPIFSTRAHVFQIDPNTKKNWVPTSKHAVTVSYFYDSTRNVYRIISLDGSKAIINSTITPNMTFTKTSQKFGQWADSRANTVYGLGFSSEHHLSKFAEKFQEFKEAARLA
Turning to B1, the Kd with PCDH15 was > 150 µM; with PRRC2B it was 100 µM; with FAT1, 98 µM; with RARA, 100 µM; with APBB1IP_1 it was > 150 µM.

B2: ENAH (protein)
chain: MSEQSICQARAAVMVYDDANKKWVPAGGSTGFSRVHIYHHTGNNTFRVVGRKIQDHQVVINCAIPKGLKYNQATQTFHQWRDARQVYGLNFGSKEDANVFASAMMHALEVLNS
For the molecule B2, the Kd with PRRC2B, in the experiment with DSCAM and with RARA was > 150 µM throughout.
